The target of one assay is T1, 4H342-bN.
T1 chain: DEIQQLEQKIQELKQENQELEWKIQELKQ
As to the kind of experiment: two-hybrid library CCNG1.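 Note: natural log of median RNA to DNA barcode read ratio; higher means stronger binding.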

For the next assay, the target named is T2, 4H491-bN.
T2 chain: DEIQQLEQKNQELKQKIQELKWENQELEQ
In words: two-hybrid library CCNG1.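 Note: natural log of median RNA to DNA barcode read ratio; higher means stronger binding.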

The target of another assay is T3, 4H48-bN.
T3 chain: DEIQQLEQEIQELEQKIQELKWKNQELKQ
In words: two-hybrid library CCNG1.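 Note: natural log of median RNA to DNA barcode read ratio; higher means stronger binding.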

For a further assay, the target named is T4, 4H2944-bN.
T4 chain: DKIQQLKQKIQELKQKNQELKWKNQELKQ
In words: two-hybrid library CCNG1.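 Note: natural log of median RNA to DNA barcode read ratio; higher means stronger binding.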

The target of another assay is T5, 4H348-bA.
T5 chain: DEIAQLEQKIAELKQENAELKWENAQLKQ
In words: two-hybrid library CCNG1.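 Note: natural log of median RNA to DNA barcode read ratio; higher means stronger binding.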

In the next assay the target is T6, 4H3057-bA.
T6 chain: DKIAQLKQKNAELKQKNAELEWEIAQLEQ
As to the kind of experiment: two-hybrid library CCNG1.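 Note: natural log of median RNA to DNA barcode read ratio; higher means stronger binding.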

In another assay the target is T7, 4H477-bA.
T7 chain: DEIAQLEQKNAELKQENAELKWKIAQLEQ
In words: two-hybrid library CCNG1.

The target in another assay is T8, 4H3855-bN.
T8 chain: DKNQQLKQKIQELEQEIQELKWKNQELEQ
In words: two-hybrid library CCNG1.

In the next assay the target is T9, 4H741-bA.
T9 chain: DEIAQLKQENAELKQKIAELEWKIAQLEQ
As to the kind of experiment: two-hybrid library CCNG1.

The next assay addresses T10, 4H319-bA.
T10 chain: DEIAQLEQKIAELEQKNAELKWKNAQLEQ
In words: two-hybrid library CCNG1.

Another assay addresses T11, 4H3277-bA.
T11 chain: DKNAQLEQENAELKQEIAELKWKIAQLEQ
As to the kind of experiment: two-hybrid library CCNG1.

The next assay deals with T12, 4H2915-bA.
T12 chain: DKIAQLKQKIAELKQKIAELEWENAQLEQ
As to the kind of experiment: two-hybrid library CCNG1.

The target in another assay is T13, 4H492-bA.
T13 chain: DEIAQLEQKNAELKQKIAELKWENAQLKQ
In words: two-hybrid library CCNG1.

A further assay addresses T14, 4H40-bA.
T14 chain: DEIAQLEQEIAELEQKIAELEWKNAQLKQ
In words: two-hybrid library CCNG1.

In another assay the target is T15, O11-bA.
T15 chain: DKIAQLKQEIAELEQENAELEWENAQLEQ
In words: two-hybrid library CCNG1.

The target in the next assay is T16, 4H855-bA.
T16 chain: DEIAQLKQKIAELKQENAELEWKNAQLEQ
As to the kind of experiment: two-hybrid library CCNG1.

In the next assay the target is T17, 4H968-bA.
T17 chain: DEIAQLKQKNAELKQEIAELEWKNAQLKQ
In words: two-hybrid library CCNG1.

For a further assay, the target named is T18, 4H918-bA.
T18 chain: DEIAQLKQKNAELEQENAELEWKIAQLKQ
As to the kind of experiment: two-hybrid library CCNG1.

The next assay addresses T19, 4H953-bA.
T19 chain: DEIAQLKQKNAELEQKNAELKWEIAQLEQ
As to the kind of experiment: two-hybrid library CCNG1.

The target in another assay is T20, 4H1629-AA.
T20 chain: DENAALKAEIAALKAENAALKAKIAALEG
In words: two-hybrid library CCmax. Conditions: mean of both orientations.

The target in the next assay is T21, 4H1513-AA.
T21 chain: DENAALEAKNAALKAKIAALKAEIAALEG
In words: two-hybrid library CCmax. Conditions: mean of both orientations.

The target in a further assay is T22, 4H2198-AA.
T22 chain: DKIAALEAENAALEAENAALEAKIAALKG
In words: two-hybrid library CCmax. Conditions: mean of both orientations.

A further assay addresses T23, 4H982-AA.
T23 chain: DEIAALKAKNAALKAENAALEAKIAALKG
As to the kind of experiment: two-hybrid library CCmax. The note with it: mean of both orientations.

The target in a further assay is T24, 4H3631-AA.
T24 chain: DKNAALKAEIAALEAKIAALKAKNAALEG
As to the kind of experiment: two-hybrid library CCmax.

The next assay deals with T25, 4H32-AA.
T25 chain: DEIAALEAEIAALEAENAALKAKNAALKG
In words: two-hybrid library CCmax. The note with it: mean of both orientations.

Another assay concerns the target T26, 4H1388-AA.
T26 chain: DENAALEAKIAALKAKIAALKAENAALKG
In words: two-hybrid library CCmax. The note with it: mean of both orientations.

In another assay the target is T27, 4H3378-AA.
T27 chain: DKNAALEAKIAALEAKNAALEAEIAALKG
As to the kind of experiment: two-hybrid library CCmax.

The next assay deals with T28, 4H3162-AA.
T28 chain: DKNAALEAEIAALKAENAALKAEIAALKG
As to the kind of experiment: two-hybrid library CCmax. The note with it: mean of both orientations.

Another assay has as its target T29, 4H1874-AA.
T29 chain: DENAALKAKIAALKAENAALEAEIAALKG
In words: two-hybrid library CCmax. Conditions: mean of both orientations.

The next assay addresses T30, 4H340-AA.
T30 chain: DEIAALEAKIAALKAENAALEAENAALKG
In words: two-hybrid library CCmax. The note with it: mean of both orientations.

The next assay addresses T31, 4H3133-AA.
T31 chain: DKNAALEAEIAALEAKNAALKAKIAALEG
As to the kind of experiment: two-hybrid library CCmax. The note with it: mean of both orientations.

For a further assay, the target named is T32, 4H1594-AA.
T32 chain: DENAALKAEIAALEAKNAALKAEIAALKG
In words: two-hybrid library CCmax. The note with it: mean of both orientations.

For another assay, the target named is T33, 4H2611-AA.
T33 chain: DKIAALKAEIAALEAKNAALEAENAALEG
As to the kind of experiment: two-hybrid library CCmax. Conditions: mean of both orientations.

In another assay the target is T34, 4H3056-AA.
T34 chain: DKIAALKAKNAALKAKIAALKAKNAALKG
As to the kind of experiment: two-hybrid library CCmax. The note with it: mean of both orientations.

For another assay, the target named is T35, 4H1845-AA.
T35 chain: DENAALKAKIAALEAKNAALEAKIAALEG
As to the kind of experiment: two-hybrid library CCmax. The note with it: mean of both orientations.

The target in another assay is T36, 4H2648-AA.
T36 chain: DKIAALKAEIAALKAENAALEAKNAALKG
As to the kind of experiment: two-hybrid library CCmax. Conditions: mean of both orientations.

A further assay addresses T37, 4H3413-AA.
T37 chain: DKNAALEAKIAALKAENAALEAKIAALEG
In words: two-hybrid library CCmax. Conditions: mean of both orientations.

The target in another assay is T38, 4H3606-AA.
T38 chain: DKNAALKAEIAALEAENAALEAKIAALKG
In words: two-hybrid library CCmax. Conditions: mean of both orientations.

For the next assay, the target named is T39, 4H384-AA.
T39 chain: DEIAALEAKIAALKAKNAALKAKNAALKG
As to the kind of experiment: two-hybrid library CCmax. The note with it: mean of both orientations.

Another assay concerns the target T40, 4H3865-AA.
T40 chain: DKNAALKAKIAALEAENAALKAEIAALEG
In words: two-hybrid library CCmax. The note with it: mean of both orientations.

In the next assay the target is T41, 4H2553-AA.
T41 chain: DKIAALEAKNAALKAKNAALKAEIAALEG
In words: two-hybrid library CCmax. Conditions: mean of both orientations.

Another assay concerns the target T42, 4H2907-AA.
T42 chain: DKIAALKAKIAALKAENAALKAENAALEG
As to the kind of experiment: two-hybrid library CCmax. Conditions: mean of both orientations.

The next assay concerns the target T43, 4H697-AA.
T43 chain: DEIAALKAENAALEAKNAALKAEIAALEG
As to the kind of experiment: two-hybrid library CCmax. The note with it: mean of both orientations.

The target in the next assay is T44, 4H3697-AA.
T44 chain: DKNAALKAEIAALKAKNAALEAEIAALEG
In words: two-hybrid library CCmax. The note with it: mean of both orientations.

The next assay addresses T45, 4H1351-AA.
T45 chain: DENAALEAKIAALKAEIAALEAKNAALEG
As to the kind of experiment: two-hybrid library CCmax.

The target in a further assay is T46, 4H2620-AA.
T46 chain: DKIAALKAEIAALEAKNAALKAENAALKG
As to the kind of experiment: two-hybrid library CCmax. Conditions: mean of both orientations.

The target of a further assay is T47, 4H3588-AA.
T47 chain: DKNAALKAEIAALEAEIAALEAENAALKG
As to the kind of experiment: two-hybrid library CCmax. The note with it: mean of both orientations.

Another assay has as its target T48, 4H1401-AA.
T48 chain: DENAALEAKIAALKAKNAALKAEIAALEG
In words: two-hybrid library CCmax. Conditions: mean of both orientations.

A further assay concerns the target T49, 4H3718-AA.
T49 chain: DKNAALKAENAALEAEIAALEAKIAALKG
In words: two-hybrid library CCmax. Conditions: mean of both orientations.

The next assay addresses T50, 4H3592-bH.
T50 chain: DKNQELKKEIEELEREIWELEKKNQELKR
As to the kind of experiment: two-hybrid library CCNG1.

Another assay addresses T51, 4H3601-bH.
T51 chain: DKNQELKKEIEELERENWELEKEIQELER
In words: two-hybrid library CCNG1.

The target of the next assay is T52, 4H3907-bH.
T52 chain: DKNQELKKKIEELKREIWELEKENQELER
As to the kind of experiment: two-hybrid library CCNG1.

A further assay addresses T53, 4H4038-bH.
T53 chain: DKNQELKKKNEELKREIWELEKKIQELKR
In words: two-hybrid library CCNG1.

In the case of DKIQQLKQKIQELKQKNQELKWKNQELKQ [4H2944-bN], the interaction score with 4H342-bN was -0.943; with 4H491-bN it was -0.954; with 4H48-bN it was -0.0947; in the assay with 4H2944-bN, -0.735.
Take DKIAQLKQKIAELKQKIAELEWENAQLEQ [4H2915-bA]: the interaction score is -1.42 with 4H348-bA; -0.856 with 4H3057-bA; -1.05 with 4H477-bA; 0.188 with 4H3855-bN; -0.66 with 4H741-bA; 1.12 in the assay with 4H319-bA. Also, the interaction score with 4H3277-bA is -1.17; with 4H2915-bA, 0.656; with 4H492-bA, -1.03; in the assay with 4H40-bA it was 1.35; with O11-bA, 0.236.
In the case of DEIAQLKQKIAELKQENAELEWKNAQLEQ [4H855-bA], the interaction score with 4H855-bA is -0.844; in the assay with 4H968-bA, -0.685; with 4H918-bA, -1.16; in the assay with 4H953-bA it was -1.71; with O11-bA it was -3.09.
Regarding DENAALEAKIAALKAEIAALEAKNAALEG [4H1351-AA], the interaction score with 4H1629-AA is -1.62; in the assay with 4H1513-AA, -0.583; in the assay with 4H2198-AA, -1.4; with 4H982-AA, -0.516; in the assay with 4H3631-AA, 2.1; with 4H32-AA, -0.591. Also, the interaction score is -0.254 with 4H1388-AA; -1.5 in the assay with 4H3378-AA; -1.42 with 4H3162-AA; -1.67 in the assay with 4H1874-AA; -1 in the assay with 4H340-AA; -0.555 in the assay with 4H3133-AA. The interaction score with 4H1594-AA was -1.24; with 4H2611-AA it was -0.748; with 4H3056-AA, -1.54; in the assay with 4H1845-AA it was -1.17; with 4H2648-AA, -0.804; with 4H3413-AA, -1.34. The interaction score with 4H3606-AA is -1.64; with 4H384-AA, 0.76; with 4H3865-AA it was -1.73; with 4H2553-AA, -1.95; with 4H2907-AA, -1.52; with 4H697-AA it was -1.65. Moreover, the interaction score with 4H3697-AA was -1.37; in the assay with 4H1351-AA, 0.323; with 4H2620-AA, -0.325; with 4H3588-AA, 0.934; in the assay with 4H1401-AA it was -1.25; in the assay with 4H3718-AA, 0.664.
Consider DKNQELKKEIEELEREIWELEKKNQELKR [4H3592-bH], for which the interaction score in the assay with 4H3592-bH is 0.863; with 4H3601-bH, -0.0581; with 4H3907-bH, 1.02; with 4H4038-bH, -0.403.

The values above are taken from PMC10397247.
